In assay [1] the target is TGFBR1 (transforming growth factor, beta receptor I), endogenous in mouse cells (mouse) (UniProt Q64729). Kind of assay: cell-based or functional assay.
Assay [2] deals with ACVR1B (activin receptor type-1B), endogenous in mouse cells (mouse) (UniProt Q61271). Kind of assay: cell-based or functional assay.
Chain of UniProt Q61271 (Q61271 24-505): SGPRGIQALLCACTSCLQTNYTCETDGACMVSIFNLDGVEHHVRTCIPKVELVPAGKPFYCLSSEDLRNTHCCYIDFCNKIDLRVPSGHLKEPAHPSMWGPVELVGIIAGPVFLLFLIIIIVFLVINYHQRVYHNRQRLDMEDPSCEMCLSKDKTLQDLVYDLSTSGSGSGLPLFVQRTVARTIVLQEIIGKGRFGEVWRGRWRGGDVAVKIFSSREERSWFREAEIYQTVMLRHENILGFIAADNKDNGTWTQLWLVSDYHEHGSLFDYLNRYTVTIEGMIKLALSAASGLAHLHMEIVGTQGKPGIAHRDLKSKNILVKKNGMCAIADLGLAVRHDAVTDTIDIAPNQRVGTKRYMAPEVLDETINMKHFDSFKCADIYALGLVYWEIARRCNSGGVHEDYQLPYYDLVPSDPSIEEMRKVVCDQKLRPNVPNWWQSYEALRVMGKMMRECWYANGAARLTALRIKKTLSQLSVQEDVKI

Chain of UniProt Q64729 (Q64729 30-503): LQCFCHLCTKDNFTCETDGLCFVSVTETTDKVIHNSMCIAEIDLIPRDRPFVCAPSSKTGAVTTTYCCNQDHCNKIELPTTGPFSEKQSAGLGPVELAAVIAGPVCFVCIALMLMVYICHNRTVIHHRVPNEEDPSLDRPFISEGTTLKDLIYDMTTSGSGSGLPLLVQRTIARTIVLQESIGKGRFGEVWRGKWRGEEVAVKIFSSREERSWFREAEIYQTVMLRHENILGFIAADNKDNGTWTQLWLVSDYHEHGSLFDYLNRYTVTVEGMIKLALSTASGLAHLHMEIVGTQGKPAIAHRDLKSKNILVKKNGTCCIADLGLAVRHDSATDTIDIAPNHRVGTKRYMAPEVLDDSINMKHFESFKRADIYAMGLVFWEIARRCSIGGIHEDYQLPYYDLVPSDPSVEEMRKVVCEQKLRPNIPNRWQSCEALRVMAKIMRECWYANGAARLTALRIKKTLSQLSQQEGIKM

Regarding TGF-beta (ligand), the TGF-beta-mediated CAGA luciferase activity in C2C12 and C3H10 T1/2 cells upon siRNA knockdown of TGFBR1 in assay [1] was 3 folds.

On to “myostatin (from UniProt O14793 267-375) (ligand)”, for which, in assay [2], the myostatin-induced CAGA luciferase in C2C12 cells upon siRNA knockdown of ACVR1B was 5 folds and the myostatin-induced luciferase in C2C12 upon A4E6 AON transfection (fold decrease) was 3. In assay [1], the myostatin-induced CAGA luciferase in C3H10 T1/2 cells upon siRNA knockdown of TGFBR1 was 2.5 folds and the myostatin-induced luciferase in C3H10 T1/2 cells upon TGFBR1 knockdown with A5E2 or A5E6 AON worked out at 50%.

The values are drawn from patent publication US20140088174A1.
